From IntAct's records for PubMed 18723617

B1: Motility protein B (Salmonella typhimurium), P55892 (parent)
chain: MKNQAHPIVVVKRRRHKPHGGGAHGSWKIAYADFMTAMMAFFLVMWLISISSPKELIQIAEYFRTPLATAVTGGNRIANSESPIPGGGDDYTQQQGEVEKQPNIDELKKRMEQSRLNKLRGDLDQLIESDPKLRALRPHLKIDLVQEGLRIQIIDSQNRPMFKTGSAEVEPYMRDILRAIAPVLNGIPNRISLAGHTDDFPYANGEKGYSNWELSADRANASRRELVAGGLDNGKVLRVVGMAATMRLSDRGPDDAINRRISLLVLNKQAEQAILHENAESQNEPVSVLQQPAAAPPASVPTSPKAEPR
partner: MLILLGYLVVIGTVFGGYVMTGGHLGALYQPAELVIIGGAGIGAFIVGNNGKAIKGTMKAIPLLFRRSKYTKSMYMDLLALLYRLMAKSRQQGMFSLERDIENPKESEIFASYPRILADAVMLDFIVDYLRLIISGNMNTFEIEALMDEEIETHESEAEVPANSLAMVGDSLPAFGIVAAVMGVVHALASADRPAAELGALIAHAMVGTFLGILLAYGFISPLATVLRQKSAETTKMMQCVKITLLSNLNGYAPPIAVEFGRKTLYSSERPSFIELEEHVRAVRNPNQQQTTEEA

Variants of: B1
Conditions: with mota_salty motA

| Variant | effect of a mutation on the interaction |
| --- | --- |
| D33E | decreasing interaction strength |
